Numbering of substitutions follows the chain as printed. Numbers in names are those of the source.
B1: CD47 TMEAbody (70H1.IgG1.Y61C + 20K PEG) (antibody, V domains shown)
VH: QQQLEESGGGLVKPEGSLTLTCTASGFSFSSGYDMCWVRQAPGRGLEWIACIYTRSSGGTCYASWAKGRFTISKTSSTVDLRMTSLTAADTATYFCAGGRSSYRLNLWGQGALVTVSS
VL: DVVMTQTPSPVEAAVGGTVTIKCQASQSISNELSWYQQKPGQPPKLLIYRASTLESGVSSRFKGSGSGTEFTLTISDLECADAATYYCQSTFYGDYGNAFGGGTEVVVK
modifications: Cys 61 (Y61C) conjugated with PEG of approximately 20K molecular weight (blocker, cleavable by legumain)
notes: IgG1; The same question of backbone applies as for 70H1.IgG1.Y61C; also called 70H1 TMEAbody; 70H1; IgG1 + 20K PEG
B2: 70H1.IgG1.Y61C (antibody, V domains shown)
VH: B1 VH
VL: B1 VL
notes: IgG1; also called 70H1 IgG1-mutation; 70H1 mutant VH-61 (Y-C)
B3: CD47 TMEAbody activated (antibody, IgG1, V domains shown)
VH: B1 VH
VL: B1 VL
modifications: Cys 61 (Y61C): 20K PEG blocker cleaved off by legumain (asparaginyl endopeptidase); what remains on the Cys is not stated
notes: The CD47 TMEAbody after treatment with legumain / asparaginyl endopeptidase; IgG1
B4: 70H1 (antibody, V domains shown)
VH: B1 VH with C61Y
VL: B1 VL
notes: Rabbit-derived variable regions; also called 70H1.IgG1; 70H1 antibody
B5: 74F1 (antibody, V domains shown)
VH: QQQLEESGGDLVKPEGSLTLTCTASGFSFSSRYNMCWVRQAPGKGLEWIACIYTGSSGSTYYASWAKGRFTISKTSSTVDLKMTSLTAADTATYFCAGGSYSYRLNLWGQGTLVTVSS
VL: B1 VL with S9A, P10S, E12S, A13T, K63S, S90A, F92G, Y96F
notes: Recombinant rabbit monoclonal antibody expressed in Expi293; it was detected with anti-human IgG Fc
B6: 70G1 (antibody, V domains shown)
VH: QSVKESEGGLFKPTDTLTLTCTVSGFSLSNYAINWVRQAPGNGLEWIGIINGYGMTYYASWAKSRSTITRNTSENTVTLKLTSLTAADTATYFCARDRYGSYVGYSSDIWGPGTLVTVSS
VL: AYDMTQTPASVEAAVGGTVTIKCQASQNISSRLAWYQQKPGQPPKLLIYGTSTLASGVPSRFRGSGSGTQFSLTISDLECADAATYYCQHGYYYSSSFTTYNAFGGGTEVVVK
notes: as for B5
B7: 69F12 (antibody, V domains shown)
VH: QSVEESEGGLFKPTDTLTLTCTISGFSLSNYDMIWVRQAPGNGLEYIGIISSRDKAGHAAWAKRRSTITRNPKENTVTLKMTSLTVADTATYFCARRFSSMHGLDIWGPGTLVTVSS
VL: AYDMTQTPSSVSAAVGGTVTIKCQASQSISNYLSWYQQKPGQPPKLLIYLASTLASGVPSRFKGSGSGTQFTLTISGVQCADAATYYCQQGYSSDSVDNVFGGGTEVVVK
notes: as for B5
B8: 71D6 (antibody, V domains shown)
VH: QSLEESGGDLVKPGASLTLTCTASGFSFSTSYWIYWVRQAPGKGLELIACIATGSDGSTYYASWASGRFTISKTSSTTVTLQMTSLTAADTATYFCAREAGNGVYNLWGQGTLVTVSS
VL: AYDMTQTPASVEVAVGGTVTIKCQASESIRNALAWYQQKPGQPPKLLISGASKLASGVASRFKGSGSATEFTLTISDLECADAATYYCQQYYSSSNVDNGFGGGTEVVVK
notes: as for B5
B9: 70H1-VH2VL2 (antibody, V domains shown)
VH: QQQLVESGGGVVQPGGSLRLSCAASGFTFSSGYDMCWVRQAPGKGLEWIACIYTRSSGGTYYASWAKGRFTISKDNSKNTLYLQMNSLRAEDTAVYYCAKGRSSYRLNLWGQGTLVTVSS
VL: DIQMTQSPSTLSASVGDRVTIKCQASQSISNELSWYQQKPGKAPKLLIYRASTLESGVSSRFSGSGSGTEFTLTISSLQPDDFATYYCQSTFYGDYGNAFGGGTKVEIK
notes: Humanized 70H1
B10: 70H1-VH3VL1 (antibody, V domains shown)
VH: B9 VH with T28S, Y97F
VL: B9 VL with K22T, S59P
notes: Humanized 70H1, the final preferred antibody
B11: 70H1-VH3VL2 (antibody, V domains shown)
VH: B9 VH with T28S, Y97F
VL: B9 VL
notes: Humanized 70H1
B12: 70H1-VH1VL3 (antibody, V domains shown)
VH: B9 VH with Q2V, I49V, A50S, K74R
VL: B9 VL with A43P
notes: Humanized 70H1
B13: 70H1-VH2VL1 (antibody, V domains shown)
VH: B9 VH
VL: B9 VL with K22T, S59P
notes: Humanized 70H1
B14: 70H1-VH1VL1 (antibody, V domains shown)
VH: B9 VH with Q2V, I49V, A50S, K74R
VL: B9 VL with K22T, S59P
notes: Humanized 70H1
B15: 70H1-VH2VL3 (antibody, V domains shown)
VH: B9 VH
VL: B9 VL with A43P
notes: Humanized 70H1
B16: 70H1-VH3VL3 (antibody, V domains shown)
VH: B9 VH with T28S, Y97F
VL: B9 VL with A43P
notes: Humanized 70H1
B17: 70H1 mutant VH-33 Y to C (antibody, V domains shown)
VH: B1 VH with Y33C, C61Y
VL: B1 VL
B18: 70H1 mutant VH-55 R to C (antibody, V domains shown)
VH: B1 VH with R55C, C61Y
VL: B1 VL
B19: 70H1 mutant VL-53 T to C (antibody, V domains shown)
VH: B1 VH with C61Y
VL: B1 VL with T53C
B20: 70H1 mutant VL-27 Q to C (antibody, V domains shown)
VH: B1 VH with C61Y
VL: B1 VL with Q27C
B21: 70H1 mutant VL-98 N to C (antibody, V domains shown)
VH: B1 VH with C61Y
VL: B1 VL with N98C
B22: 70H1 mutant VL-96 Y to C (antibody, V domains shown)
VH: B1 VH with C61Y
VL: B1 VL with Y96C
B23: 70H1 mutant VL-49 Y to C (antibody, V domains shown)
VH: B1 VH with C61Y
VL: B1 VL with Y49C
B24: 70H1 mutant VH-65 W to C (antibody, V domains shown)
VH: B1 VH with C61Y, W65C
VL: B1 VL
B25: 70H1 mutant VL-93 Y to C (antibody, V domains shown)
VH: B1 VH with C61Y
VL: B1 VL with Y93C
B26: 70H1 mutant VL-92 F to C (antibody, V domains shown)
VH: B1 VH with C61Y
VL: B1 VL with F92C

The binders below were run against T1, human CD47 antigen (immobilized on CM5 chip, Biacore) (human, UniProt Q08722 19-139, limits assumed) (assay: SPR (Biacore T200)).
T1 sequence (Q08722 19-139 limits assumed): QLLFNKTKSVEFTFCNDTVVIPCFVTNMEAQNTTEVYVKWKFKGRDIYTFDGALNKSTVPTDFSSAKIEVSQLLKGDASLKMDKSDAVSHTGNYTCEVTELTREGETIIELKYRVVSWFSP

Binder | fold decrease of affinity compared to 70H1 [fold]
B1 | 470

The binders below were run against T2, CD47 on Raji cells (human, UniProt Q08722 19-323) (assay: flow cytometry on Raji cells).
T2 construct: whole, on cells
T2 sequence (Q08722 19-323): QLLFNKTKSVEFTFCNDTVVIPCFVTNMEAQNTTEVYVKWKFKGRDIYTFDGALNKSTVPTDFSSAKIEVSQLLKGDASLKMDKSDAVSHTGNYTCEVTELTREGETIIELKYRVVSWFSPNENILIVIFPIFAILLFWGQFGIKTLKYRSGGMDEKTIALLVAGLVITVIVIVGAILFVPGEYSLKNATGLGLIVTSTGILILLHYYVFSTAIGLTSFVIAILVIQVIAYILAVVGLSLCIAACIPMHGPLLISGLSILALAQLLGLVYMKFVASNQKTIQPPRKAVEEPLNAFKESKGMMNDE

Binder | fold lower binding compared to 70H1 [fold]
B1 | ~60

Molecular target: T2, CD47 on Raji cells
Test: flow cytometry on Raji cells
Remark: another data set of the same source

Binder | EC50 [nM]
B2 | 0.47
B3 | 0.24
B1 | 31.9

What follows are binders tested against T3, CD47 on CHOK1-CD47 cells (UniProt Q08722 19-323) (assay: flow cytometry on CHOK1-CD47 cells).
T3 construct: whole, on cells; The rabbits were immunized with human CD47, so human is likely
T3 sequence (Q08722 19-323 limits assumed): as the sequence (Q08722 19-323) above

Binder | EC50 [nM] | fold lower binding compared to 70H1 [fold]
B4 | 0.91 | 
B5 | 2.82 | 
B1 |  | ~20
B6 | 2.88 | 
B7 | 0.8 | 
B8 | 3.8 | 

The binders below were run against T4, Recombinant human CD47 protein (DIMA BIOTECH, Cat# PME-100008) (human, UniProt Q08722 19-139, limits assumed) (assay: ELISA on coated recombinant human CD47).
T4 construct: Bought protein, coated on ELISA plates; also called CD47 antigen
T4 sequence (Q08722 19-139 limits assumed): as the sequence (Q08722 19-139 limits assumed) above

Binder | fold weaker binding affinity compared to 70H1 [fold]
B1 | ~7

Molecular target: T3, CD47 on CHOK1-CD47 cells
Test: flow cytometry on CHOK1-CD47 cells
Remark: another data set of the same source

Binder | EC50 [nM]
B4 | 0.38
B2 | 0.39
B3 | 0.91
B1 | 7.6

Molecular target: T3, CD47 on CHOK1-CD47 cells
Test: flow cytometry on CHOK1-CD47 cells
Remark: another data set of the same source

Binder | EC50 [nM]
B4 | 0.35
B9 | 1.17
B10 | 0.23
B11 | 0.64
B12 | 1.76
B13 | 1.09
B14 | 1.04
B15 | 1.05
B16 | 1.01

Molecular target: T4, Recombinant human CD47 protein (DIMA …)
Test: ELISA on coated recombinant human CD47
Remark: another data set of the same source

Binder | EC50 [nM]
B4 | 0.12
B2 | 0.07
B3 | 0.15
B1 | 0.72

These binders were tested against antibody antigen (CD47) coated in the ELISA of Example 3 (UniProt Q08722) (assay: ELISA on coated antigen, ratio against wild-type 70H1).
Chain of antibody antigen (CD47) coated in the ELISA of Example 3 (Q08722 19-139 limits assumed): as above

Binder | Mutant Binding Strength (EC50 post-mutation / EC50 wild-type)
B17 | 1
B18 | 1
B19 | 1
B20 | 1
B21 | 1
B22 | 1
B23 | 0.9
B2 | 1
B24 | 0.8
B25 | 1
B26 | 1.3

The binders below were run against T1, human CD47 antigen (immobilized on CM5 …) (assay: SPR (Biacore T200), CD47 antigen on CM5 chip, antibody as analyte, 1:1 model).

Binder | Kd [nM] | koff [s⁻¹] | kon [M⁻¹ s⁻¹]
B4 | 0.0308 | 0.00014 | 4.54e+06
B1 | 14.1 | 0.000343 | 24400

Reference: EP4793287A1, “TUMOR MICROENVIRONMENT SPECIFICALLY ACTIVATED CD47 ANTIBODY” (Affinity (Shanghai) Biopharmaceutical Co., Ltd., priority 2023, dated 2025)
